Test [1] addresses T1, human chemokine (C-X-C motif) receptor 3 (Homo sapiens, UniProt P49682).
T1 construct: TEV protease site; Gal4-VP16 transcription factor ('Ga14-VP16' [sic]); Tango cell line; host or cells: Tango GPCR-bla U2OS
T1 sequence (P49682 1-368): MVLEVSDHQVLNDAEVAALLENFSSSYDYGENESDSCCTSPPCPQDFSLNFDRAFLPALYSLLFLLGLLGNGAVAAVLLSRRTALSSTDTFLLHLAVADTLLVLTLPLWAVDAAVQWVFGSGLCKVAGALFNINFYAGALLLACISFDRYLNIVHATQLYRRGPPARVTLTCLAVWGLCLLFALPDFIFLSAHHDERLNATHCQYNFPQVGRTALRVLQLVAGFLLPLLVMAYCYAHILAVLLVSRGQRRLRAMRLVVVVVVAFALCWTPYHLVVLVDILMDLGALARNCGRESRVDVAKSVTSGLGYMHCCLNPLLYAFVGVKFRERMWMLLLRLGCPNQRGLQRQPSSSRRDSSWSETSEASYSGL
Kind of test: Positive allosteric modulator assay method 1 (PAM1), Tango CXCR3-bla U2OS. The conditions noted are these: retro-inverso peptide vs SG-3-00802. The class given is cell-based. The text has this:
To assay positive allosteric modulator activity of SG-3-00802 (SEQ ID NO: 1) and SG-3-006683 in CXCR3 cell lines, the cell line Tango™ CXCR3-bla U2OS was used in a positive allosteric modulator assay with two different methods, as described below.
(§1) Tango™ CXCR3-bla U2OS cells contain the human chemokine (C-X-C motif) receptor 3 linked to a TEV protease site and a Ga14-VP16 transcription factor stably integrated into the Tango™ GPCR-bla U2OS cell line. This parental cell line stably expresses a beta-arrestin/TEV protease fusion protein and the beta-lactamase reporter gene under the control of a UAS response element. The Tango™ CXCR3-bla U2OS cells have been functionally validated for a response to I-TAC (CXCL11).
In positive allosteric modulator assay method 1 (PAM1), cells were diluted in Assay Media to an appropriate cell density and were added to the assay plate. Peptides were added at increasing concentrations (1 nM-20 mcM) to the cells in the assay plate and incubated for 30 minutes. Ligand (CXCL9, CXCL10, or CXCL11) was added at an EC20 to all wells containing test compound. The assay plate was incubated for 16 hours at 37° C. Substrate Loading Solution was added to the assay plate and incubated for 2 hours at room temperature, in the dark. The assay plate was read on a fluorescence plate reader and the data was analyzed. PAM activity was calculated as follows:
% of PAM=((Test compound−Unstimulated)/(Stimulated−Unstimulated))×100.

Test [2] relates to Unstimulated human T cells. Kind of test: Transwell T cell migration towards CXCR3 ligands. The class given is cell-based. The conditions noted are these: CXCL11, 2.5 hours. How it is done: T cell migration towards CXCR3 ligands in the presence of SG-3-00802 and SG-3-06683 was tested using a Transwell migration assay. Suboptimal concentrations of each ligand (CXCR3 ligands CXCL9, CXCL10, and CXCL11) were added to the bottom of the transwell with increasing doses of SG-3-00802 or SG-3-006683. An optimal concentration of ligand was used as positive control, as indicated in the graphs.
Unstimulated human T cells were resuspended in AIM V serum-free media, then were added to the top chamber of a […] polycarbonate Transwell insert and incubated with the indicated concentrations of the ligands and peptides in the bottom chamber for 2.5 hours at 37° C. T cells that migrated to the bottom chamber were collected, stained with anti-CD3 antibody, and counted using Beckman Coulter Cytoflex flow cytometer. 123count eBeads counting beads were added to each of the wells for obtaining the absolute cell counts.

For test [3], the target named is T2, CXCR3 (Homo sapiens, UniProt P49682).
T2 sequence (P49682 1-368): T1 sequence (P49682 1-368)
In words: Positive allosteric modulator assay method 2 (PAM2), CXCR3-bla U2OS. The conditions noted are these: varying CXCL11, fixed peptide concentration. The class given is cell-based. Also on record: TEV protease site; Gal4-VP16 transcription factor ('Ga14-VP16' [sic]); Tango cell line; host or cells: Tango GPCR-bla U2OS.
Description: as §1
Positive allosteric modulation was confirmed with an additional test method using a dose response setting for CXCL11. In positive allosteric modulator assay method 2 (PAM2), cells were diluted in Assay Media to an appropriate cell density, and were added to the assay plate. CXCR3-bla U2OS were stimulated with varying concentrations of CXCL11 ligand and a pre-determined fixed concentration of either SG-3-00802 or SG-3-06683 and incubated for 30 minutes. Ligand (CXCL9, CXCL10, or CXCL11) was added at increasing concentrations to wells containing the test compound.

Test [4] has as its target T3, human chemokine (C-X-C motif) receptor 3 (human, UniProt P49682 1-368).
T3 construct: whole, on cells; The PathHunter gpcrMAX panel uses a different, undescribed construct; also called CXCR3
T3 sequence (looked up): T1 sequence (P49682 1-368)
In words: hit of DualSystems LRC-TriCEPS capture and SelectScreen reporter assay, confirmed in PathHunter beta-arrestin GPCR panel.

Where no end group is shown, it is not given here.

“GQRQKHKPNECIVMVRGKRRIIKCKECMPKVSPRVKM (not fully specified; cysteine pairing not given here) [SG-3-06683]”: the “Activation of CXCR3” value in test [1] was “maintained”. Moreover, the “T cell migration to suboptimal level of ligand” value in test [2] is reported as “increased migration”. Further, the “activity of CXCL11 on the CXCR3 receptor (PAM2)” value in test [3] is “enhanced the activity of the endogenous ligand CXCL11”.

As for MKVRPSVKPMCEKCKIIRRKGRVMVICENPKHKQRQG (also called PEP802) [SG-3-00802], the binding result in test [4] is reported as “binds”.

(Values after patent US20240317816A1, “PEPTIDES FOR IMMUNOTHERAPY” (Genevive, Inc., priority 2021, published 2024).)
